Publication doi:10.1101/2024.04.17.589974 (bioRxiv, 2024)

How the values were obtained:
[1] = biological target: T1, VE-cadherin (wild type, mouse) (mouse (endogenous in lung of C57BL/6 …, UniProt P55284 46-784)); experiment: co-IP
T1 sequence (looked up): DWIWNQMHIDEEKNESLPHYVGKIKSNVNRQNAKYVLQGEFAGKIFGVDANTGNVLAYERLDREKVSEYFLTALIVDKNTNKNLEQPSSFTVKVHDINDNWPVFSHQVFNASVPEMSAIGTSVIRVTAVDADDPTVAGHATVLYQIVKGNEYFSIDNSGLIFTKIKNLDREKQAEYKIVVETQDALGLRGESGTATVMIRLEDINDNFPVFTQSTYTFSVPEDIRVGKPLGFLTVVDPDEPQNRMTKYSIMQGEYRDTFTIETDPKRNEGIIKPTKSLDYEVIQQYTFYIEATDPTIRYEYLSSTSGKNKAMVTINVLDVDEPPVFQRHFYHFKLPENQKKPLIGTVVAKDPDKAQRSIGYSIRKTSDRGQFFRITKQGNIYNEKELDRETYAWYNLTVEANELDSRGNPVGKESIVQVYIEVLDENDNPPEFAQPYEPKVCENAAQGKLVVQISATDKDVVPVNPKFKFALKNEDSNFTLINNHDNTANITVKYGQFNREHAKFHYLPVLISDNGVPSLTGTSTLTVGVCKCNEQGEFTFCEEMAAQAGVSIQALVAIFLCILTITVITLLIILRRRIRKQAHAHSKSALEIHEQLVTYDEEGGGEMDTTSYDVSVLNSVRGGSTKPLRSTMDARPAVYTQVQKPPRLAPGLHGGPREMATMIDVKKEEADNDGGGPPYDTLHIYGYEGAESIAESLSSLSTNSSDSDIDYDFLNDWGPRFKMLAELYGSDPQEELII

[2] = biological target: T2, Y685F-VE-cadherin (knock-in mutant, mouse) (mouse (endogenous in lung of C57BL/6 …, UniProt P55284 46-784, Y685F)); experiment: co-IP
T2 sequence (looked up): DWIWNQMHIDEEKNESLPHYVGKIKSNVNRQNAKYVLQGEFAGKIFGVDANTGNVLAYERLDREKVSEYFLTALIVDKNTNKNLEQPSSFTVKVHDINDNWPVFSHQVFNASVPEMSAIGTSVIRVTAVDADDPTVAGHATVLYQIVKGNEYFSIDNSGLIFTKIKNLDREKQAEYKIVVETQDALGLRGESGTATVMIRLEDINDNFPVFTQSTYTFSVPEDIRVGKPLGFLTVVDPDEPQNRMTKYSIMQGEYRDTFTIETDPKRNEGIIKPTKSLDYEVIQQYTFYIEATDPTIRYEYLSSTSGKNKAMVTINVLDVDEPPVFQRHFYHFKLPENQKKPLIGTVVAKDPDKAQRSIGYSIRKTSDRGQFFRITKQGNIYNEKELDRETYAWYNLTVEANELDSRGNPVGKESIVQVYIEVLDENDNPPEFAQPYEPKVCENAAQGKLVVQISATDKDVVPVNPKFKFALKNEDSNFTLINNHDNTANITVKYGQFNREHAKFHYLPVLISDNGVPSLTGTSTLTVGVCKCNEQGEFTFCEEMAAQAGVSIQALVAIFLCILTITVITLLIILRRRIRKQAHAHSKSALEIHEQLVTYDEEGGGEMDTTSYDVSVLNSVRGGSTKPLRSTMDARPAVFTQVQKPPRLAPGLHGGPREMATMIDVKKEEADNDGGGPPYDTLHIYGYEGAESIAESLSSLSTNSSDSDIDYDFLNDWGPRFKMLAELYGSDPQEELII

β-catenin/VE-cadherin ratio in the VE-cadherin immunoprecipitate (densitometry) [1]: 1.14
β-catenin/VE-cadherin ratio in the VE-cadherin immunoprecipitate (densitometry) [2]: 0.798
B1: β-catenin (natural protein, UniProt Q02248 1-781, looked up)
chain: MATQADLMELDMAMEPDRKAAVSHWQQQSYLDSGIHSGATTTAPSLSGKGNPEEEDVDTSQVLYEWEQGFSQSFTQEQVADIDGQYAMTRAQRVRAAMFPETLDEGMQIPSTQFDAAHPTNVQRLAEPSQMLKHAVVNLINYQDDAELATRAIPELTKLLNDEDQVVVNKAAVMVHQLSKKEASRHAIMRSPQMVSAIVRTMQNTNDVETARCTAGTLHNLSHHREGLLAIFKSGGIPALVKMLGSPVDSVLFYAITTLHNLLLHQEGAKMAVRLAGGLQKMVALLNKTNVKFLAITTDCLQILAYGNQESKLIILASGGPQALVNIMRTYTYEKLLWTTSRVLKVLSVCSSNKPAIVEAGGMQALGLHLTDPSQRLVQNCLWTLRNLSDAATKQEGMEGLLGTLVQLLGSDDINVVTCAAGILSNLTCNNYKNKMMVCQVGGIEALVRTVLRAGDREDITEPAICALRHLTSRHQEAEMAQNAVRLHYGLPVVVKLLHPPSHWPLIKATVGLIRNLALCPANHAPLREQGAIPRLVQLLVRAHQDTQRRTSMGGTQQQFVEGVRMEEIVEGCTGALHILARDVHNRIVIRGLNTIPLFVQLLYSPIENIQRVAAGVLCELAQDKEAAEAIEAEGATAPLTELLHSRNEGVATYAAAVLFRMSEDKPQDYKKRLSVELTSSLFRTEPMAWNETADLGLDIGAQGEALGYRQDDPSYRSFHSGGYGQDALGMDPMMEHEMGGHHPGADYPVDGLPDLGHAQDLMDGLPPGDSNQLAWFDTDL
